Assay [1] has as its system human corneal endothelial cell. The assay can be described thus: Ki67 immunostaining of human corneal endothelial cells incubated with RSPO1 to 4. The assay is classed as cell-based. An excerpt: A corneal tissue was embedded with OCT compound (catalog No.: 4583; Sakura Finetek, Tokyo, Japan), and frozen in liquid nitrogen to prepare a frozen corneal tissue section. The frozen block was sliced to 8 μm, applied on a silane-coating slide, and air-dried. For preparing the whole tissue section, a Descemet's membrane containing a corneal endothelial cell was peeled from a corneal tissue, allowed to stand in ice-cooled 100% acetone for 30 seconds, applied on a silane-coating slide, and air-dried. As a cultured corneal endothelial cell, a cell cultured on a LabTek 8-well plastic chamber slide was used. Ice-cooled 100% acetone was added to a corneal tissue and the cultured cell, the resultant was allowed to stand at 4° C. for 15 minutes to fix the cell. After shaking and washing with 0.15% TritonX/PBS-, 1% bovine serum albumin (catalog No.: A4503BSA; Sigma-Aldrich, St. Louis, Mo.) was added, and allowed to stand at room temperature for 30 minutes to perform blocking. A primary antibody was diluted with 1% BSA, and incubated at room temperature for 1 hour. As a primary antibody to be used, anti-rabbit GPR49/LGR5 (catalog No.: GTX71143; 1: 200; GeneTex Inc., San Antonio, Tex.), anti-rabbit Nestin (catalog No.: PRB-570C; 1: 200; COVANCE, Berkeley, Calif.), anti-mouse ABCG2 (catalog No.: NC_236; 1: 2; Kamiya biomedical CO., Seattle, Wash. USA), anti-mouse Ki-67 (catalog No.: 556003; 1: 200 BD Pharmingen™ NJ, USA), anti-rabbit Na^+/K^+ ATPase (catalog No.: A132; 1: 100; Zymed), and anti-rabbit ZO1 (Zymed Laboratries Inc., South San Francisco, Calif.) were used. The resultant was washed with 0.15% Triton/PBS- twice, and PBS- once.
A secondary antibody was diluted with a mixed solution of 1% BSA and 0.15% TrironX/PBS-, and incubated at room temperature for 30 minutes. As a secondary antibody to be used, Alexa™ Fluor 488-labeled (conjugated) goat anti-rabbit IgG (catalog No.: A11034; 1: 1500; Molecular Probe-Invitrogen) and Alexa™ Fluor 488-labeled (conjugated) goat anti-mouse IgG (catalog No.: A11029; 1: 1500; Molecular Probe-Invitrogen) were used. The secondary antibody was shaken and washed with 0.15% Triton/PBS- twice, and PBS- once, subjected to nuclear staining with propidium iodide (catalog No.: SP29004-41; PI; Nacalai Tesque, Inc. Kyoto, Japan), and embedded while covered with a cover glass.
In order to investigate a relationship between R-sporadin 1 (RSPO1), R-spondin 2 (RSPO2), R-spondin 3 (RSPO3), or R-spondin 4 (RSPO4) and differentiation of a corneal endothelial cell, the relationship was studied using RSPO1. Reagents used are as follows. • RSPO1 R&D systems catalog No.: 4645-RS • RSPO2 R&D systems catalog No.: 3266-RS • RSPO3 R&D systems catalog No.: 3500-RS • RSPO4 R&D systems catalog No.: 4575-RS
Then, for the purpose of investigating the influence of RSPO on cell proliferation, RSPO1 to 4 were incubated into a human corneal endothelial cell under conditions of 37° C. and 5% CO2 for 1 day. Thereafter, Ki-67 being a cell proliferation marker was immunostained.

Assay [2] relates to cytosol β-catenin and p-LRP6. As to the kind of experiment: Western blotting of Wnt/β-catenin-associated molecules in human CEC with or without RSPO1. The assay is classed as cell-based. The text has this: For Western blotting, the following rabbit polyclonal antibodies: anti-LRP6, p-LRP6 (Cell Signaling Technology, Inc., Beverly, Mass.), as well as the following mouse monoclonal antibodies: β-catenin (BD Biosciences) and β-actin (Sigma-Aldrich, St. Louis, Mo.); were used. As a secondary antibody, HRP-labeled anti-rabbit or mouse IgG (GE Healthcare, Piscataway, N.J.) was used. Recombinant human SHH, purmorphamine, cyclopamine and RSpos were purchased from R&D Systems Inc. (Minneapolis, Minn.).
Cultured human CEC was washed with PBS, and then, rinsed with a lysis buffer containing PBS, 1% TRITON™ X-100, 0.5 M EDTA, phosphatase inhibitor cocktail 2 (Sigma-Aldrich) and […] (Roche). Detection of activated β-catenin (non-membrane-bound type) was implemented according to the protocol previously reported [Aghib D F et al., Exp Cell Res., 1995; 218: 359-369]. In brief, a cell lysate treated with Con A Sepharose™ 4B (GE Healthcare) was incubated at 4° C. for 1 hour. After centrifugation at 4° C. for 10 minutes, the supernatant was transferred into a new tube, Con A Sepharose™ was added to each tube, and the resultant was incubated at 4° C. for 1 hour. Finally, after simple centrifugation, the supernatant was transferred into a new tube, and the protein concentration was determined.
Then, the protein was separated by SDS-PAGE, and transferred to a PVDF membrane. […]

In assay [3] the test system is corneal endothelial cell of rabbit sclerocorneal section. The assay can be described thus: Organ culture of rabbit sclerocorneal section with R-spondin 1: corneal endothelial cell density (ZO-1). The assay is classed as cell-based, white rabbit. Particulars: control 3674. The procedure:
Eyeballs of white rabbit (Nacalai) euthanized for another object were purchased, and a sclerocorneal section was prepared. The sclerocorneal section was cultured in an incubator at 37° C. for 1 week in DMEM (INVITROGEN, catalog No.: 12320) and 10% fetal bovine serum (FBS) (BIOWEST, catalog No.: 51820-500). […] A corneal endothelial cell was subjected to nuclear staining with DAPI, and the Ki67-positive cell rate was calculated. In addition, a corneal endothelial cell was immunostained with ZO-1, and the cell density was calculated.

The values that follow come from US9616101B2, “Differentiation marker and differentiation control of eye cell” (Kyoto Prefectural Public University Corporation, priority 2012, dated 2017).

B1: R-spondin 1: Recombinant Human R-spondin 1 (R&D Cat. 4645-RS); ligand of GPR49/LGR5 (protein, listed as Homo sapiens)
chain: MRLGLCVVALVLSWTHLTISSRGIKGKRQRRISAEGSQACAKGCELCSEVNGCLKCSPKLFILLERNDIRQVGVCLPSCPPGYFDARNPDMNKCIKCKIEHCEACFSHNFCTKCKEGLYLHKGRCYPACPEGSSAANGTMECSSPAQCEMSEWSPWGPCSKKQQLCGFRRGSEERTRRVLHAPVGDHAACSDTKETRRCTVRRVPCPEGQKRRKGGQGRRENANRNLARKESKEAGAGSRRRKGQQQQQQQGTVGPLTSAGPA
B1: the “level of the Ki67(+) cell ratio” value in assay [1] (50 ng/ml (FIG. 6C-C), as compared with other RSPOs) is listed as “dramatically increased”. The Ki67 staining result in assay [1] (R-spondin 1 1000 ng/ml (FIG. 11)) is “staining is also observed”. Also, the “Ki67-positive cell rate as compared with a control” value in assay [1] (RSPO1 50 ng/ml, 500 ng/ml (FIG. 11)) is given as “increased”. In assay [1] (incubated 1 day, 37° C., 5% CO2), the “proliferation of a human corneal endothelial cell (Ki-67 immunostain)” value is “statistically significantly promoted proliferation”. Besides, the “protein level of cytosol β-catenin and p-LRP6” value in assay [2] (cell transfected with GPR49/LGR5 and treated with RSPO1 (50 ng/ml), as compared with NT cell) is given as “clearly decreased”; in assay [2] (cells transfected with NT and GPR49/LGR5, treated with RSPO1 (50 ng/ml), as compared with cell group not treated with RSPO1), “decreased”. The “corneal endothelial cell density” value amounted to 4314 cells/mm^2 in assay [3] (1 ng/ml R-spondin 1, 1 week); 4626 cells/mm^2 in assay [3] (10 ng/ml R-spondin 1, 1 week); 5037 cells/mm^2 in assay [3] (100 ng/ml R-spondin 1, 1 week).
